The values below are quoted from earlier work in publication PMC7568816 (Gastroenterology Research and Practice, 2020).

The conditions of the data set: due to proteolytic cleavage by dipeptidyl peptidase IV; ref [15]. On the procedure:
Endogenous GLP-2 is composed of 33 amino acids and has a short half-life of about 7 minutes due to proteolytic cleavage by dipeptidyl peptidase IV [15]. Chemical substitution of the amino acid alanine to […] at position 2 extends the half-life of GLP-2, and this molecule (teduglutide) is approved for the treatment of short bowel syndrome.

Turning to “Endogenous GLP-2: enteroendocrine hormone composed of 33 amino acids”, the half-life result was “about 7 minutes”.
